Source: article doi:10.1101/2023.05.23.541938

Target: TgPKS2 thioester reductase domain (TgTR) (Toxoplasma gondii)
Assay: ITC

Q: For holo-TgACP4 (domain or fragment), which Kd is on record?
A: The Kd was 5.75 µM.
